The text below walks through data of PMC9616737 (2022).

The target of this assay is human plasma fibronectin (human).
Chain of human plasma fibronectin (human) (P02751 other isoform, or with tags, fused parts or gaps): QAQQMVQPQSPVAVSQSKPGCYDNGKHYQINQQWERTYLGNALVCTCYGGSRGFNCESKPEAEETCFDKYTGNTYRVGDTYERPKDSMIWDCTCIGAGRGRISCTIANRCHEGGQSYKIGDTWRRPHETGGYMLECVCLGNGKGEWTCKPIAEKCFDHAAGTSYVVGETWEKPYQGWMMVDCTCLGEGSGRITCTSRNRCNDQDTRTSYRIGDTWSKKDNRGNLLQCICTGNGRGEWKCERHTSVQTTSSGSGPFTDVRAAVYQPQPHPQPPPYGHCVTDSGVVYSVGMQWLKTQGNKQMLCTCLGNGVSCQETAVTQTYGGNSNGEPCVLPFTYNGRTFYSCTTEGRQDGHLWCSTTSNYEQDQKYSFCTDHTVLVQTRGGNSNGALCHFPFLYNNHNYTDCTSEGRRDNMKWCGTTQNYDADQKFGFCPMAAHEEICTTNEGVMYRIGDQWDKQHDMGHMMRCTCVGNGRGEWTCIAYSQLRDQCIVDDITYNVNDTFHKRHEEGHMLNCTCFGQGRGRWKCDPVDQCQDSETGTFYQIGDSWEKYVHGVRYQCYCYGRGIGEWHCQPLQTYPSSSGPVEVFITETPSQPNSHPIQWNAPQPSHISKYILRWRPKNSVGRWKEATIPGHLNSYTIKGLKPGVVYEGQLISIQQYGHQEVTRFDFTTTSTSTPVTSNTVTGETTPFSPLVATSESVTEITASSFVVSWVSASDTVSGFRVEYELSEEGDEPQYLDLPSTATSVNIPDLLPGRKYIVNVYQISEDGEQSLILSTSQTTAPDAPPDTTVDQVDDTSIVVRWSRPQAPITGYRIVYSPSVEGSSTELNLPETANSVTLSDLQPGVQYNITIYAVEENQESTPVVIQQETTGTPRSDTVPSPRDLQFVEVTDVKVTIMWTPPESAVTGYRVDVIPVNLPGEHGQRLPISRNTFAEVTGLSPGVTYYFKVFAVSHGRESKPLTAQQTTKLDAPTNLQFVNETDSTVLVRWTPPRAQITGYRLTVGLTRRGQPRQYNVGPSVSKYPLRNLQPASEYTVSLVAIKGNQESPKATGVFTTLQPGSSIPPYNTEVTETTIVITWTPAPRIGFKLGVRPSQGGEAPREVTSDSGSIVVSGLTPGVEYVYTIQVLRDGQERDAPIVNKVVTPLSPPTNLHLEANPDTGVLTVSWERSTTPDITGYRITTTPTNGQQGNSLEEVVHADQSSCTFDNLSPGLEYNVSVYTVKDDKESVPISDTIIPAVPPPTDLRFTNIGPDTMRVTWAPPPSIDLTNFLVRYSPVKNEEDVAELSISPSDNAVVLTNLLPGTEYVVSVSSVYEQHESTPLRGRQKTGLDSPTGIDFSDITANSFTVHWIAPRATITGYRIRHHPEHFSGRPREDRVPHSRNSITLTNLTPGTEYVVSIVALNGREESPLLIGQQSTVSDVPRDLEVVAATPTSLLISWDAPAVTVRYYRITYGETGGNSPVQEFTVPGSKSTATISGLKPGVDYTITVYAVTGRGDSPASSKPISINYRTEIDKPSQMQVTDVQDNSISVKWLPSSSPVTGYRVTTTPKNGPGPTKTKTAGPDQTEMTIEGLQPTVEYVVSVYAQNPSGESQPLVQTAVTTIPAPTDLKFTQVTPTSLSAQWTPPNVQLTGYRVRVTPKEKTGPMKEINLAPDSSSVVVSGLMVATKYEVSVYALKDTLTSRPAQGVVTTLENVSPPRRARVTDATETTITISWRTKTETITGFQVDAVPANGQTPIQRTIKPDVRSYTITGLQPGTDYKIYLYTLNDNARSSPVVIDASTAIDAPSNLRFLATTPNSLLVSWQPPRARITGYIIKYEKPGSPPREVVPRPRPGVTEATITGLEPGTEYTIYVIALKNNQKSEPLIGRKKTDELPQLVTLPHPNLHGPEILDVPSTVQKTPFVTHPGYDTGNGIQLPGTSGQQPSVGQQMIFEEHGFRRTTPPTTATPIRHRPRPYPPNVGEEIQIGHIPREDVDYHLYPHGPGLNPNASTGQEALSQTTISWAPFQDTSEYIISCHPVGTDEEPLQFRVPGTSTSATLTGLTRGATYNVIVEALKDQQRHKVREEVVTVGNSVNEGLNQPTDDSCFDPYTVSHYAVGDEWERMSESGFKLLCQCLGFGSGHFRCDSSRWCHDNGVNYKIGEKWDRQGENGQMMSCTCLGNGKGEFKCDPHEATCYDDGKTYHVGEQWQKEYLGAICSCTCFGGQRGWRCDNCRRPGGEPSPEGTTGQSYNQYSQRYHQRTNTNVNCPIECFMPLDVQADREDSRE

B1: recombinant embigin extracellular domain GST-fusion protein (EMB-GST) (domain or fragment)
chain: DGSAPDSPFTSPPLREEIMANNFSLESHNISLTEHSSMPVEKNITLERPSNVNLTCQFTTSGDLNAVNVTWKKDGEQLENNYLVSATGSTLYTQYRFTIINSKQMGSYSCFFREEKEQRGTFNFKVPELHGKNKPLISYVGDSTVLTCKCQNCFPLNWTWYSSNGSVKVPVGVQMNKYVINGTYANETKLKITQLLEEDGESYWCRALFQLGESEEHIELVVLSYLVP
Usually Kd stands for the equilibrium constant for the complex coming apart. A higher Kd goes with weaker binding. B1 came in with a dissociation constant (Kd) of less than 50 nM.
